Reference: PMC8931434

B1: CerS2-HA [not stated] / FATP2-Flag [human] (parent)
chain 1: MLQTLYDYFWWERLWLPVNLTWADLEDRDGRVYAKASDLYITLPLALLFLIVRYFFELYVATPLAALLNIKEKTRLRAPPNATLEHFYLTSGKQPKQVEVELLSRQSGLSGRQVERWFRRRRNQDRPSLLKKFREASWRFTFYLIAFIAGMAVIVDKPWFYDMKKVWEGYPIQSTIPSQYWYYMIELSFYWSLLFSIASDVKRKDFKEQIIHHVATIILISFSWFANYIRAGTLIMALHDSSDYLLESAKMFNYAGWKNTCNNIFIVFAIVFIITRLVILPFWILHCTLVYPLELYPAFFGYYFFNSMMGVLQLLHIFWAYLILRMAHKFITGKLVEDERSDREETESSEGEEAAAGGGAKSRPLANGHPILNNNHRKND
chain 2: not shown

Variants of: B1
Assay: co-immunoprecipitation (anti-HA IP, anti-Flag western blot, quantified)
Settings: with FATP2-Flag [human]; CerS2-/- Hek293T cells, 48 h after transfection; three independent experiments; read off a plot

Row | response | Variant
1 | 1.4 | chain 1 H212A H213A
2 | 6.2 | chain 1 S341A T346A S348A S349A
